# Measurements as given in patent US20240239902A1.
# B1: bispecific antibody [CD20×NKG2D #3] (bispecific antibody, part only; not given: constant regions, Fab-scFv linker, tags, not shown: another chain or arm of the molecule; a dimerising Fc or GST; small tags and cut ends)
# VH: QVQLQQPGAELVKPGASVKMSCKASGYTFTSYNMHWVKQTPGRGLEWIGAIYPGNGDTSYNQKFKGKATLTADKSSSTAYMQLSSLTSEDSAVYYCARSTYYGGDWYFNVWGAGTTVTVSS
# VL: QIVLSQSPAILSASPGEKVTMTCRASSSVSYIHWFQQKPGSSPKPWIYATSNLASGVPVRFSGSGSGTSYSLTISRVEAEDAATYYCQQWTSNPPTFGGGTKLEIK
# scFv: QVQLVQSGAEVKKPGASVKVSCKASGYTFTSYGISWVRQAPGQGLEWMGGIIPIFGTANYAQKFQGRVTITADESTSTAYMELSSLRSEDTAVYYCAKDLYDYVWGSYRPNWYFDLWGRGTLVTVSSGSASAPKLEEGEFSEARVSSELTQDPAVSVALGQTVRITCQGDSLRGYYASWYQQKPGQAPVLVTYGNNKRPSGIPDRFSGSSSGNTASLTITGTQAEDEADYYCNSRDNNGNFVIFGGGTKLTVL
# Molecular target: NKG2D on effector cells (NK cells, MNC) (human) (UniProt P26718)
# Chain of UniProt P26718 (P26718 whole entry): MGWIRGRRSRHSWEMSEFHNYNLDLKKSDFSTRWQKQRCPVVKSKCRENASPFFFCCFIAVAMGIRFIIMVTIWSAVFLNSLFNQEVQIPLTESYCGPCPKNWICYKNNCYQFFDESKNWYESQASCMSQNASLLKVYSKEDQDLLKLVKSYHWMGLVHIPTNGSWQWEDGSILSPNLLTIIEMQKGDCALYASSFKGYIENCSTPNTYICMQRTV
# Test: cell-based or functional assay
binder,measurement,value
B1,"maximum lysis, CD19-DE mediated ADCC against GRANTA-519 with MNC, in combination with the bsAb (4 h 51Cr release)",24.5%
